Measurements as given in publication PMC3618968 (The Journal of neuroscience : the official journal of the …, 2013).

Target: mouse PCDH15 EC1+2 (wild type) (mouse, UniProt Q99PJ1 27-259)
Experiment: ITC

B1: mouse CDH23 EC1+2 (domain or fragment)
chain: QVNRLPFFTNHFFDTYLLISEDTPVGSSVTQLLARDMDNDPLVFGVSGEEASRFFAVEPDTGVVWLRQPLDRETKSEFTVEFSVSDHQGVITRKVNIQVGDVNDNAPTFHNQPYSVRIPENTPVGTPIFIVNATDPDLGAGGSVLYSFQPPSPFFAIDSARGIVTVIQELDYEVTQAYQLTVNATDQDKTRPLSTLANLAIIITD
**Q.** Does B1 bind?
**A.** binds
